Measured values taken from IntAct's records for PubMed 17555716.

B1: 26S proteasome regulatory subunit 6B homolog (Saccharomyces cerevisiae), P33298 (parent)
chain: MEELGIVTPVEKAVEEKPAVKSYASLLAQLNGTVNNNSALSNVNSDIYFKLKKLEKEYELLTLQEDYIKDEQRHLKRELKRAQEEVKRIQSVPLVIGQFLEPIDQNTGIVSSTTGMSYVVRILSTLDRELLKPSMSVALHRHSNALVDILPPDSDSSISVMGENEKPDVTYADVGGLDMQKQEIREAVELPLVQADLYEQIGIDPPRGVLLYGPPGTGKTMLVKAVANSTKAAFIRVNGSEFVHKYLGEGPRMVRDVFRLARENAPSIIFIDEVDSIATKRFDAQTGSDREVQRILIELLTQMDGFDQSTNVKVIMATNRADTLDPALLRPGRLDRKIEFPSLRDRRERRLIFGTIASKMSLAPEADLDSLIIRNDSLSGAVIAAIMQEAGLRAVRKNRYVILQSDLEEAYATQVKTDNTVDKFDFYK
partner: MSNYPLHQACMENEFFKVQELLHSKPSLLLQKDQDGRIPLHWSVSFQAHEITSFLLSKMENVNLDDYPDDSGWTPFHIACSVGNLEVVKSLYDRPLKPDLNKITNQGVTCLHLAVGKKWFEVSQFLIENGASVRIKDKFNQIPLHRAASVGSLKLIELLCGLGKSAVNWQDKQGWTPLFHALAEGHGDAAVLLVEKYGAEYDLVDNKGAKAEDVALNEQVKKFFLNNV

Variants of: B1
Settings: with psd10_yeast NAS6, P50086

Row | Variant | effect of a mutation on the interaction
1 | E365A;D367A | disrupting interaction strength
2 | K397A;R399A | disrupting interaction strength
